The values below come from paper PMC7885793 (Biochemistry, 2019).

This assay has as its target T1, PLCβ3 ΔXY2 (Homo sapiens, UniProt Q01970 10-1234, ΔXY2 (residues 471–584)).
T1 sequence (looked up): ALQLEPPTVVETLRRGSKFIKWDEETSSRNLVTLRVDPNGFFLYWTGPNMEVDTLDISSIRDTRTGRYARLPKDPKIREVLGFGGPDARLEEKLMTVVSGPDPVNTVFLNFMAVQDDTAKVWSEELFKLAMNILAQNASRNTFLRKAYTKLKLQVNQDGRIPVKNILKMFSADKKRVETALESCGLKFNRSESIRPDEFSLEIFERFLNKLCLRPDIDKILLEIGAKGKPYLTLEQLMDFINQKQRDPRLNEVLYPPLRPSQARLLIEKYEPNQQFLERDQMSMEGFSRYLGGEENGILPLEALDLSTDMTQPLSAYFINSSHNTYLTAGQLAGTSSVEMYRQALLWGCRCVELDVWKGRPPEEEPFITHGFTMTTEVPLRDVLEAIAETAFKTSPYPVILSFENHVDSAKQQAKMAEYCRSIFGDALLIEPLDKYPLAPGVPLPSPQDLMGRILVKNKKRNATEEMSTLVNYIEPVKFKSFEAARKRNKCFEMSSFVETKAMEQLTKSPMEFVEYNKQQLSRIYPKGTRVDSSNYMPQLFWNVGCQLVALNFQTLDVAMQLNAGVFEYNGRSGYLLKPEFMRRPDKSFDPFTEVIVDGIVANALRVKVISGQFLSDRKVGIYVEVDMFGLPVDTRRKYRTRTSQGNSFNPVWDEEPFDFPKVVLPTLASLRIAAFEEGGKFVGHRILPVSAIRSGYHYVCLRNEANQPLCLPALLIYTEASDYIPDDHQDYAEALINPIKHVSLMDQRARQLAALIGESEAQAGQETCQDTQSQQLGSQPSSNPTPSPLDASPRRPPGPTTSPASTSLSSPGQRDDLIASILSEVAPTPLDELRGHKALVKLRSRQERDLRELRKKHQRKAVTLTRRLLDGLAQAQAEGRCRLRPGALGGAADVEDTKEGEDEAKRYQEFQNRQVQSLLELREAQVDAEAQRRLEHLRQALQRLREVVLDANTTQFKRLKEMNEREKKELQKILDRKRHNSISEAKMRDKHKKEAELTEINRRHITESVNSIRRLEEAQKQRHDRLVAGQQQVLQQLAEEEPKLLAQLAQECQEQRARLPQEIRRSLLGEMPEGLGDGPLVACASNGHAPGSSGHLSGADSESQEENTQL
Briefly: cell-based or functional assay.

B1: Activated Gαq (Gαq·GDP-ALF4^−) (natural protein, murine, UniProt P21279 7-359, looked up)
chain: MACCLSEEAKEARRINDEIERQLRRDKRDARRELKLLLLGTGESGKSTFIKQMRIIHGSGYSDEDKRGFTKLVYQNIFTAMQAMIRAMDTLKIPYKYEHNKAHAQLVREVDVEKVSAFENPYVDAIKSLWNDPGIQECYDRRREYQLSDSTKYYLNDLDRVADPSYLPTQQDVLRVRVPTTGIIEYPFDLQSVIFRMVDVGGQRSERRKWIHCFENVTSIMFLVALSEYDQVLVESDNENRMEESKALFRTIITYPWFQNSSVILFLNKKDLLEEKIMYSHLVDYFPEYDGPQRDAQAAREFILKMFVDLNPDSDKIIYSHFTCATDTENIRFVFAAVKDTILQLNLKEYNLV
Take B1: the “x-fold maximum activity over basal (complex against the PLCβ3 variant alone)” value came out at 2 x-fold.
